The record followed here is article PMC9465349, “G protein–coupled receptor kinase phosphorylation of distal C-tail sites specifies βarrestin1-mediated signaling by chemokine receptor CXCR4” (The Journal of Biological Chemistry, 2022).

B2: βarrestin1-GFP10 (natural protein, UniProt P49407 1-418, looked up)
chain: MGDKGTRVFKKASPNGKLTVYLGKRDFVDHIDLVDPVDGVVLVDPEYLKERRVYVTLTCAFRYGREDLDVLGLTFRKDLFVANVQSFPPAPEDKKPLTRLQERLIKKLGEHAYPFTFEIPPNLPCSVTLQPGPEDTGKACGVDYEVKAFCAENLEEKIHKRNSVRLVIRKVQYAPERPGPQPTAETTRQFLMSDKPLHLEASLDKEIYYHGEPISVNVHVTNNTNKTVKKIKISVRQYADICLFNTAQYKCPVAMEEADDTVAPSSTFCKVYTLTPFLANNREKRGLALDGKLKHEDTNLASSTLLREGANREILGIIVSYKVKVKLVVSRGGLLGDLASSDVAVELPFTLMHPKPKEEPPHREVPENETPVDTNLIELDTNDDDIVFEDFARQRLKGMKDDKEEEEDGTGSPQLNNR
notes: βarrestin1 (βarr1); plasmid a gift from Michel Bouvier; Gift plasmid; also called βarr1-GFP; βarr1-GFP^10; source: HEK293, transiently transfected (PEI), in live cells

Holding throughout (conditions): partners not purified
Assay [1] deals with B2. Description: FRET or BRET; BRET2 in live HEK293 cells coexpressing FLAG-NTS1, Rluc8-STAM1 and βarr1-GFP; increasing concentrations of neurotensin, 10 min, 37 °C.
Assay [2] addresses B2. Description: FRET or BRET; BRET2 in live HEK293 cells coexpressing FLAG-AT1a, Rluc8-STAM1 and βarr1-GFP; increasing concentrations of angiotensin II, 10 min, 37 °C. Background: BRET reads energy transfer from a luciferase to a nearby fluorophore.
Assay [3] deals with T1, NTS1-Rluc8 (neurotensin receptor 1) (UniProt P30989 1-418).
T1 construct: neurotensin receptor 1 (NTS1); 'the NTS1-coding region' amplified by PCR from the NTS1-Tango plasmid; New plasmid; source: HEK293, transiently transfected (PEI), in live cells
T1 sequence (P30989 whole entry): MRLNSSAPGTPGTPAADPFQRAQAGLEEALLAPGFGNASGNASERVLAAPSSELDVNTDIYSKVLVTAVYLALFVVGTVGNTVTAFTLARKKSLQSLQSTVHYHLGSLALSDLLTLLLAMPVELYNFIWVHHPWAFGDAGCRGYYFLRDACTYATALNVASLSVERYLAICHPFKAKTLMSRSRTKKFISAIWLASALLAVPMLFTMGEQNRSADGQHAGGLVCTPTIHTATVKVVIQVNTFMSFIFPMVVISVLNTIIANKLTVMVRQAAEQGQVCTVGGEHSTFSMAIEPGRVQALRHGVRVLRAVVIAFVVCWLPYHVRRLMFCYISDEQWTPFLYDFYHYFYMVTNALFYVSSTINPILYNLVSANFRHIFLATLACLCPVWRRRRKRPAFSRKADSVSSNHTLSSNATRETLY
Briefly: FRET or BRET; BRET2 in live HEK293 cells coexpressing a GPCR tagged with Rluc (CXCR4-Rluc3, or GPCR-Rluc8; donor) and βarr1-GFP10 (acceptor); increasing concentrations of the receptor's agonist at 37 °C; vehicle or 1 μM Gö6983 (little effect, CXCR4).

For assay [4], the target named is T2, CXCR4-Rluc3 (UniProt P61073 1-352).
T2 construct: chemokine receptor CXCR4; plasmid a gift from Nikolaus Heveker; Gift plasmid; also called Rluc3-tagged CXCR4; source: HEK293, transiently transfected (PEI), in live cells
T2 sequence (P61073 whole entry): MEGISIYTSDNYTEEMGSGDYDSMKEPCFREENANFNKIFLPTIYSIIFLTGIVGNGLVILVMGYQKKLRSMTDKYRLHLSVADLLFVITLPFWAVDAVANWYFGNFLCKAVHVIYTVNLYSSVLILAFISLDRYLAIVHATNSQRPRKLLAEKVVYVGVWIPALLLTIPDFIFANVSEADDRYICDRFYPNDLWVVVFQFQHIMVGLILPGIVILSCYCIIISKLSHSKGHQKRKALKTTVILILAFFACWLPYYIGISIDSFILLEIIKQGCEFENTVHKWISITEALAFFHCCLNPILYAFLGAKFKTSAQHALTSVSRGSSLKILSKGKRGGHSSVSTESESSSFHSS
The assay is described as above.

Assay [5] deals with T2, CXCR4-Rluc3. Description: FRET or BRET; as a13 for CXCR4-Rluc3 and βarr1-GFP, but in the presence of 30 μM GRK2/3 inhibitor compound 101.

B1: STAM1 (signal-transducing adaptor molecule 1) tagged at the N terminus with Rluc8 (natural protein, UniProt Q92783 1-540, looked up)
chain: MPLFATNPFDQDVEKATSEMNTAEDWGLILDICDKVGQSRTGPKDCLRSIMRRVNHKDPHVAMQALTLLGACVSNCGKIFHLEVCSRDFASEVSNVLNKGHPKVCEKLKALMVEWTDEFKNDPQLSLISAMIKNLKEQGVTFPAIGSQAAEQAKASPALVAKDPGTVANKKEEEDLAKAIELSLKEQRQQSTTLSTLYPSTSSLLTNHQHEGRKVRAIYDFEAAEDNELTFKAGEIITVLDDSDPNWWKGETHQGIGLFPSNFVTADLTAEPEMIKTEKKTVQFSDDVQVETIEPEPEPAFIDEDKMDQLLQMLQSTDPSDDQPDLPELLHLEAMCHQMGPLIDEKLEDIDRKHSELSELNVKVMEALSLYTKLMNEDPMYSMYAKLQNQPYYMQSSGVSGSQVYAGPPPSGAYLVAGNAQMSHLQSYSLPPEQLSSLSQAVVPPSANPALPSQQTQAAYPNTMVSSVQGNTYPSQAPVYSPPPAATAAAATADVTLYQNAGPNMPQVPNYNLTSSTLPQPGGSQQPPQPQQPYSQKALL
notes: STAM1 (signal-transducing adaptor molecule 1); the plasmid holds 'the STAM1-coding region' in pcDNA3; New plasmid; Rluc8 fragment from pTRE-Tight-Rluc8 (Addgene 79844); also called Rluc8-STAM1; RLuc8-STAM1; source: HEK293, transiently transfected (PEI), in live cells; not shown: Rluc8, N-terminal, kept
For B1, the “potency (EC50) of the agonist neurotensin for the BRET response” value in assay [1] is 220 pM. For the same molecule, the “potency (EC50) of the agonist angiotensin II for the BRET response” value in assay [2] stood at 70000 pM.

With B2, the “potency (EC50) of the agonist neurotensin for the BRET response” value in assay [3] was 130 pM. Moreover, the “EC50 of the agonist CXCL12 for the BRET response (vehicle)” value in assay [4] came out at 300 pM. For the same molecule, the “EC50 of the agonist CXCL12 for the BRET response (with GRK2/3 inhibitor compound 101)” value in assay [5] turned out to be 7790 pM.
